Measurements as given in patent publication US20210113587A1 (ADC THERAPEUTICS, published 2021).

T1: human recombinant soluble CD25 ectodomain (human, UniProt P01589 22-240)
T1 construct: extracellular domain; Immobilised on a Biacore CM3 chip; also called sCD25 ectodomain; human sCD25 ectodomain
T1 sequence (looked up): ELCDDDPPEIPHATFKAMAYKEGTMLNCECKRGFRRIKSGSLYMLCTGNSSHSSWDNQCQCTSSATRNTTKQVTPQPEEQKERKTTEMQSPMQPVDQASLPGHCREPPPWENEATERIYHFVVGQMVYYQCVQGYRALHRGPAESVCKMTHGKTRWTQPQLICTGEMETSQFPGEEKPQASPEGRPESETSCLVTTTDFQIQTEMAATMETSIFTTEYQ

T2: human CD25 on concanavalin-A activated CD25-positive human PBMCs and CD25-expressing lymphoma cell lines (human, UniProt P01589 22-272)
T2 construct: whole, on cells; also called IL2R-α; Interleukin-2 receptor-α
T2 sequence (looked up): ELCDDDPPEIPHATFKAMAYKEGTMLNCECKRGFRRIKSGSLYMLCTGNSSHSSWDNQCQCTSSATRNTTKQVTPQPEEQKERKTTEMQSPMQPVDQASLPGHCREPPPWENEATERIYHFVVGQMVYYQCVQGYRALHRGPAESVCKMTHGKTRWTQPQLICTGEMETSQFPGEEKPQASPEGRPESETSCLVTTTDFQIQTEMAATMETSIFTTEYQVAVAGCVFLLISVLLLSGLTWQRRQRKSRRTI


Columns and labels:
[1] = molecular target: T1, human recombinant soluble CD25 …; assay: SPR (Biacore CM3 chip), sCD25 ectodomain immobilised; mean of runs
Procedure: (§1) The equilibrium dissociation constant, KD, was calculated for both molecules using BIAevaluation ® software.

[2] = molecular target: T1, human recombinant soluble CD25 …; assay: SPR (Biacore CM3 chip), sCD25 ectodomain immobilised; run 2
Procedure: as §1

[3] = molecular target: T1, human recombinant soluble CD25 …; assay: SPR (Biacore CM3 chip), sCD25 ectodomain immobilised; run 1
Procedure: as §1

[4] = molecular target: T1, human recombinant soluble CD25 …; assay: SPR (Biacore CM3 chip), sCD25 ectodomain immobilised; run 5
Procedure: as §1

[5] = molecular target: T1, human recombinant soluble CD25 …; assay: SPR (Biacore CM3 chip), sCD25 ectodomain immobilised; run 6
Procedure: as §1

[6] = molecular target: T1, human recombinant soluble CD25 …; assay: SPR (Biacore CM3 chip), sCD25 ectodomain immobilised; run 4
Procedure: as §1

[7] = molecular target: T1, human recombinant soluble CD25 …; assay: SPR (Biacore CM3 chip), sCD25 ectodomain immobilised; run 3
Procedure: as §1

[8] = molecular target: T2, human CD25 on concanavalin-A activated …; assay: flow cytometry, MFI on concanavalin-A activated CD25-positive human PBMCs (CD25-PE gate)
Procedure: FIG. 1. […] Isotype, non-targeting-ADC-FITC was used as the non-binding ADC control. The EC₅₀ was ≈0.03 μg/ml (180 pM).

Binder | Kd [1] [nM] | Kd [2] [nM] | Kd [3] [nM] | Kd [4] [nM] | Kd [5] [nM] | Kd [6] [nM] | Kd [7] [nM] | EC50 [8] [nM]
ADCT-301 (antibody, V domains shown, pyrrolobenzodiazepine (PBD) warhead attached by a cleavable linker, drug-antibody ratio 2.3±0.3; attachment residues not stated, also called HuMax-TAC-E of WO2014/57119) VH: QVQLVQSGAEVKKPGSSVKVSCKASGGTFSRYIINWVRQAPGQGLEWMGRIIPILGVENYAQKFQGRVTITADKSTSTAYMELSSLRSEDTAVYYCARKDWFDYWGQGTLVTVSS VL: not shown | 0.0209 | 0.0205 | 0.0205 | 0.0212 | 0.0244 | 0.0179 | 0.0207 | ~0.18
HuMax®-TAC (antibody, V domains shown, also called AB12; naked antibody) VH: QVQLVQSGAEVKKPGSSVKVSCKASGGTFSRYIINWVRQAPGQGLEWMGRIIPILGVENYAQKFQGRVTITADKSTSTAYMELSSLRSEDTAVYYCARKDWFDYWGQGTLVTVSS VL: not shown | 0.0158 | 0.016 | 0.0146 | 0.0144 | – | 0.0148 | 0.0191 | –
